In experiment [1] the target is T1, human HER3 receptor on cells (human, UniProt P21860 20-1342). As to the kind of experiment: cell-based or functional assay.
Another experiment has as its target T2, Her3/His10 receptor (UniProt P21860 20-643, limits assumed).
T2 construct: extracellular domain; also called HER3 ECD tagged with 10 histidine (His); not shown: tag of 10 histidines
Nature of the experiment: AlphaScreen, blocking of biotinylated NRG-1beta binding to Her3/His10 (column head prints EC50, title and text IC50). The protocol: HER3 ligand neuregulin (NRG1) can bind on HER3 extracellular domain and activates HER3 phosphorylation and down-stream signaling. Blocking ligand binding on HER3 by the selected rabbit HER3 monoclonal antibodies was determined using alpha screen format assay. NRG1 (R&D Systems) was biotinylated using a biotinylation kit (Fisher Scientific) and HER3 ECD was tagged with 10 histidine (His). Purified anti-HER3 Mabs were serially diluted two-fold into an assay buffer made from 25 mM Hepes, 100 mM NaCl, 0.5% BSA and 0.05% Tween20 in an opaque/white, half-well area plate (Costar). Rabbit IgG1 was used as a negative control. Biotinylated NRG-lbeta ligand and Her3/His₁₀ receptor were added sequentially at 10 nM concentration to the assay plate containing serially diluted antibodies. The mixture of receptor, ligand and the antibodies was incubated at room temperature with gentle shaking for 90 minutes. AlphaScreen Streptavidin Donor beads and His-Nickel Acceptor beads were added into the assay at a final concentration of 20 μg/ml each. The assay plates were covered with foil and incubated at room temperature with gentle shaking for 1 hour. The plates were read in EnVision plate reader.

In experiment [2] the target is T3, human HER3/ErbB3 extracellular domain (human, UniProt P21860 20-643).
T3 construct: extracellular domain; the range 1-643 of M34309 is printed only for the immunogen; also called Human HER3 ECD; recombinant human HER3
T3 sequence (P21860 20-643): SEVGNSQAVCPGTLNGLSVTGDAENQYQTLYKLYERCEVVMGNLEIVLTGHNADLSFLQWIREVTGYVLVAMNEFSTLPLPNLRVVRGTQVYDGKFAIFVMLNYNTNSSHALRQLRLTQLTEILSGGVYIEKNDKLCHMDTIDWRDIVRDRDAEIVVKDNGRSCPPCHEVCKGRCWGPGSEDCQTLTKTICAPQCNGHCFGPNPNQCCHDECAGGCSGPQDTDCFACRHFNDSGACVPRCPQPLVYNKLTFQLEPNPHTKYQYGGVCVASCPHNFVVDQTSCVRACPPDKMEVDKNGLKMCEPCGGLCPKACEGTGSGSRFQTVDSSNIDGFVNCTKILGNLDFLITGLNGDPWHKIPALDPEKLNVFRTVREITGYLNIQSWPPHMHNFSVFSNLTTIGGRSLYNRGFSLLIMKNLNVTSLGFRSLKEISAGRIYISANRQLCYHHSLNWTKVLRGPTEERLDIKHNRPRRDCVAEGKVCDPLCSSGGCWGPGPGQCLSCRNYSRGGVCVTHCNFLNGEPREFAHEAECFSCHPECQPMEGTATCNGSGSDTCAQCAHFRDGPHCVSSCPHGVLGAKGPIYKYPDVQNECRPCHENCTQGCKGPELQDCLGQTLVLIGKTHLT
Nature of the experiment: SPR, Biacore T-100; antibody captured by anti-rabbit IgG, recombinant human HER3 as analyte. As for the experimental part: All experiments were performed at 25° C. at a flow rate of 45 μl/min. To prepare a BIAcore assay, an anti-rabbit IgG antibody (50 μg/ml each in acetate buffer, pH 5.0) was immobilized onto a carboxymethyl dextran sensorchip (CM5) using amine coupling procedures as described by the manufacturer. Purified rabbit Mabs to be tested were diluted at a concentration of 5 μg/ml in 0.5% P20, HBS-EP buffer and injected on FC2 to reach 500 to 1000 RU. FC1 was used as the reference cell. Specific signals correspond to the difference of signals obtained on FC2 versus FC1. The analyte (recombinant human HER3, apparent molecular weight 97 kDa on SDS-PAGE gel) was injected during 90 sec at series of concentration dilutions (100, 50, 25, 12.5, 6.25, and 3.13, 1.56 nM) in 0.5% P20, HBS-EP buffer. These concentrations were prepared from stock solution in 0.5% P20, HBS-EP. The dissociation phase of the analyte was monitored over a 30 minute period. Running buffer was also injected under the same conditions as a double reference. After each running cycle, both flow cells were regenerated by injecting 20 to 45 μl of glycine-HCl buffer pH 1.5. Binding KD on HER3 was calculated by koff/kon kinetic rate for each HER3 monoclonal antibody (Table 2).

Experiment [3] deals with T1, human HER3 receptor on cells. As to the kind of experiment: cell-based or functional assay. The source holds these as a separate data set.
Experiment [4] deals with T3, human HER3/ErbB3 extracellular domain. As to the kind of experiment: ELISA on human HER3 ECD.
Experiment [5] concerns the target T1, human HER3 receptor on cells. Nature of the experiment: cell-based or functional assay. This is another data set of the same source.
Experiment [6] shares this target. As to the kind of experiment: cell-based or functional assay. The source holds these as a separate data set.
The target in experiment [7] is T3, human HER3/ErbB3 extracellular domain. As to the kind of experiment: SPR, Biacore T-100, HER3 ECD.
Another experiment deals with T4, Mouse HER3 ECD (mouse, UniProt Q61526 20-641).
T4 construct: extracellular domain; also called mouse HER3 ECD domains
T4 sequence (Q61526 20-641): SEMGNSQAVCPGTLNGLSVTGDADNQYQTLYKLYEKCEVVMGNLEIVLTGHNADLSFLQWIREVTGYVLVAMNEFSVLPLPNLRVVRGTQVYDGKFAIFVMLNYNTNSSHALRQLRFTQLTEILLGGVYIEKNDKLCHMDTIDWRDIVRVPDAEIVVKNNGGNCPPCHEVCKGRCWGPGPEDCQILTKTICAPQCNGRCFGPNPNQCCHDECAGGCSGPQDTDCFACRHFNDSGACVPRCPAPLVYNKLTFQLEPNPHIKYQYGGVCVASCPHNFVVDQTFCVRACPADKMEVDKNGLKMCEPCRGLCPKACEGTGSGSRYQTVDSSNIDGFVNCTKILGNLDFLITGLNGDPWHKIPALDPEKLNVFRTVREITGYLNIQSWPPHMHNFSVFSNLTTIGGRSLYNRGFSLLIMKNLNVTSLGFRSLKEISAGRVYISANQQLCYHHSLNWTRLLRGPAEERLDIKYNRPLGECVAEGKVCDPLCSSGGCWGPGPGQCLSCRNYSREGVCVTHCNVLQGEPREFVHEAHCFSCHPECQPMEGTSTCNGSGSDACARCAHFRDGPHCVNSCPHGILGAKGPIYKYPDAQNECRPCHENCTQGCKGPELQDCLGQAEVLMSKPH
As to the kind of experiment: ELISA on mouse HER3 ECD.

Positions count from the first letter of the chain named.

T1 sequence (P21860 20-1342): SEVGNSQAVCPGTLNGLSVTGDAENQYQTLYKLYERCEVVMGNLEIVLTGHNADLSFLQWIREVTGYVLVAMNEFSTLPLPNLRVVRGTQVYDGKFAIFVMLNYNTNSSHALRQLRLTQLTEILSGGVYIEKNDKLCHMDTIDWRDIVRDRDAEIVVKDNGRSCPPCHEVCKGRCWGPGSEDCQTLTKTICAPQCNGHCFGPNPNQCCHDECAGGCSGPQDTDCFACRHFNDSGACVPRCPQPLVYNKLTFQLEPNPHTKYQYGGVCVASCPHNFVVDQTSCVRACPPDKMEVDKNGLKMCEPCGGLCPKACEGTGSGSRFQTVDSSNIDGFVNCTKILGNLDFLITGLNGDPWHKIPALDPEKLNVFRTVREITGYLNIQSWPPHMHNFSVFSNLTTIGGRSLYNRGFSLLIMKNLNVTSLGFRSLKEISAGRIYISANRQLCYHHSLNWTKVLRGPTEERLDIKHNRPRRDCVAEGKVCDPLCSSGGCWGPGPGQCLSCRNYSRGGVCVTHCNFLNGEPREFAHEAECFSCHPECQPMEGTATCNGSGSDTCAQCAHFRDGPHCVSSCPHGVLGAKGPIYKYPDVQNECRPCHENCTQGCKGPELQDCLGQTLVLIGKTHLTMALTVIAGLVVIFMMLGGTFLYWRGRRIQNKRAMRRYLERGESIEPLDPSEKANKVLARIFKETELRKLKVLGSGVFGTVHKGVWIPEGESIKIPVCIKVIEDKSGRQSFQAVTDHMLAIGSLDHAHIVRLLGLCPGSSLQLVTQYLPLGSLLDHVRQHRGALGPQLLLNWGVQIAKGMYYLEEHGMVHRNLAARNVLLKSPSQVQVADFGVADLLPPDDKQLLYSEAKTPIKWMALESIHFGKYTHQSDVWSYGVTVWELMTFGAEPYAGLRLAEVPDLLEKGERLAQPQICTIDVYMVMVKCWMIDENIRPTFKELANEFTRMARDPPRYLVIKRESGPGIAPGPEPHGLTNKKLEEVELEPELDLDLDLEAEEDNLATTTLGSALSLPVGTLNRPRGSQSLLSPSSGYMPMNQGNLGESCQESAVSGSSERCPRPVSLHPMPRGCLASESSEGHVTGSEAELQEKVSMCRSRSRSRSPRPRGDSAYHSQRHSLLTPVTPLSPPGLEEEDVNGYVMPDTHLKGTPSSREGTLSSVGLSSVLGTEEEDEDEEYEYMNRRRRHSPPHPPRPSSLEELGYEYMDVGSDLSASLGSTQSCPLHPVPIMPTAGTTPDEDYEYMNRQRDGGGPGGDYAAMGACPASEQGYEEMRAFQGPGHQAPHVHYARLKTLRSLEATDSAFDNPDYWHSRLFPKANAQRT
T2 sequence (P21860 20-643 limits assumed): as the sequence (P21860 20-643) above

B1: Rab774 (antibody, V domains shown)
VH: QSVEESGGRLVTPGTPLTLTCTVSGIDLSTYAMTWVRRAPGKGLEWLGIINRSSKTYLTDWARGRFTISKTSTTVDLKISSPTTEDTATYFCGRVMSPYSVAGGDLWGPGTLVTVSS
VL: QPVLTQSPSASAALGASAKLTCILSSDLSDYTIDWYKHQQGEAPRYLMQLRSDGSYTKGTGVPDRFSGSSSGADRYLVISSVQADDEADYYCGLPYSVEYVFGGGTQLTVT
notes: also called Rab774 monoclonal antibody
For B1, in experiment [1], the “pAKT inhibition, EC50 (nM)” value came out at 2.3 nM; the “pERK ½ inhibition, EC50 (nM)” value was 3.8 nM; the “pHER3 inhibition, EC50 (nM)” value came out at 1.8 nM. Also, in the experiment with Her3/His10 receptor, the IC50 was 0.52 nM. Further, the Kd in experiment [2] came to 0.16 nM. The “% Receptor Internalization” value in [3] turned out to be 60%.

B2: HER3-hMab-A13 (antibody, V domains shown)
VH: QVQLVESGGGLVQPGGSLRLSCSASGFSFSSSYWICWVRQAPGKGLEYIGYIWSGNGATYYASWAKGRFTISRDNSKNTVYLQMNSLRAEDTAVYFCARNYDASGYGIFHLWGPGTLVTVSS
VL: DIQMTQTPSSLSASVGDRVTINCQASQSIVSSYLSWYQQKPGKPPKLLIYSASKLASGVPSRFSGSGSGTDFTLTISSLQPEDFATYYCLYGVDSSNIDNAFGGGTKVEIK
Consider B2, for which the EC50 in experiment [4] is 2.5 ng/mL.

B3: HER3-hMab-A16 (antibody, V domains shown)
VH: B2 VH with Y48L, N75T
VL: B2 VL with D1A, I2V
As to B3, in experiment [4], the EC50 was determined as 2.3 ng/mL. This EC50 and that of the molecule before are within 1.5-fold of each other.

B4: HER3-hMab-A14 (antibody, V domains shown)
VH: B2 VH with Y48L, N75T
VL: B2 VL
B4: a half-maximal effect in experiment [4] (EC50) was put at 1.9 ng/mL. Further, in experiment [5], the “pHER3 inhibition (IC50, µg/ml)” value turned out to be 0.0017 µg/ml. In addition, the “Inhibition of MCF-7 cancer cell proliferation (IC50, µg/ml)” value in experiment [6] came out at 0.232 µg/mL. In experiment [7], this molecule came in with a Kd of 0.862 nM, a koff of 0.000174 s⁻¹ and a kon of 201000 M⁻¹ s⁻¹.

B5: HER3-hMab-A15 (antibody, V domains shown)
VH: B2 VH
VL: B2 VL with D1A, I2V
B5 yielded an EC50 in [4] of 2.4 ng/mL.

B6: Rab1210 (antibody, V domains shown)
VH: QEQLEESGGGLVQPEGSLTLTCTASGFSFSSSYWICWVRQAPGKGLELIGYIWSGNGATYYASWAKGRFTISKTSSTTVTLQMTSVTATDTATYFCARNYDASGYGIFHLWGPGTLVTVSS
VL: AVVMTQTPASVSAAVGGTVTINCQASQSIVSSYLSWYQQKTGQPPKLLIYSASKLASGVPPRFSGSGSGTQFTLTISGVQCDDAATYYCLYGVDSSNIDNAFGGGTEVVVK
notes: also called Rab1210 monoclonal antibody
As to B6, in experiment [1], the “pAKT inhibition, EC50 (nM)” value worked out at 0.4 nM; the “pERK ½ inhibition, EC50 (nM)” value worked out at 1.3 nM; the “pHER3 inhibition, EC50 (nM)” value turned out to be 0.7 nM. The IC50 with Her3/His10 receptor amounted to 0.1 nM. Also, the Kd in experiment [2] came to 1 nM. Besides, in experiment [3], the “% Receptor Internalization” value was found to be 62%.

B7: Chi1210 (antibody, V domains shown)
VH: B6 VH
VL: B6 VL
notes: also called parental rabbit/human Fc chimera of Rab1210
Molecule B7 gave an EC50 in [4] of 2.6 ng/mL. The “pHER3 inhibition (IC50, µg/ml)” value in [5] turned out to be 0.0035 µg/ml. In addition, in [6], the “Inhibition of MCF-7 cancer cell proliferation (IC50, µg/ml)” value came to 0.084 µg/mL. In [7], the Kd is 1.2 nM, the koff amounted to 0.000644 s⁻¹ and the on-rate (kon) stood at 538000 M⁻¹ s⁻¹.

B8: Rab46 (antibody, V domains shown)
VH: EEQLVESGGGLVQPEGSLTLTCTASGFSFSASYYIYWVRQAPGKGLEGIAYITGDDDKRTYYANWAKGRFTISKTSTTVTLQMTSLTAADTATYFCTRNLPDELWGPGTLVTVSS
VL: QAVVTQTPSSVSAAVGGTVTISCQSSESVYSYKNLAWYQQKPGQPPRLLIWQASRLSSGVSSRFSGSGSGTQFTLTISGVQCDDAATYYCQGTYYSSAWDFVFGGGTEVMVE
notes: also called Rab46 monoclonal antibody
As for B8, in [1], the “pAKT inhibition, EC50 (nM)” value amounted to 3.8 nM; the “pERK ½ inhibition, EC50 (nM)” value stood at 6.2 nM; the “pHER3 inhibition, EC50 (nM)” value was found to be 3.5 nM. Besides, in the experiment with Her3/His10 receptor, the IC50 is 0.51 nM. In addition, in experiment [2], the dissociation constant Kd came to 7.3 nM. Also, the “% Receptor Internalization” value in experiment [3] turned out to be 39%.

B9: Rab189 (antibody, V domains shown)
VH: QESLEESGGDLVKPEGTLTLTCKASGIGFGYYYYICWVRQAPGKGLEWIACIYTGISDSTYYATWAKGRFAISKTSSTTVTLQMTSLTAADTATYFCARSDPYYTTTYTNTYPTYWNLWGPGTLVTVSS
VL: CAFELTQTPSSVEAAVGGTVTIKCQASQSINNYLAWYQQKTGQPPKLLIYRASTLESGVPSRFKGSGSGTQFTLTISDLECADAATYYCQSYYYSSSNNYYNAFGGGTEVVVK
notes: also called Rab189 monoclonal antibody
Consider B9, for which, in experiment [1], the “pAKT inhibition, EC50 (nM)” value was determined as 3.6 nM; the “pERK ½ inhibition, EC50 (nM)” value stood at 5.5 nM; the “pHER3 inhibition, EC50 (nM)” value worked out at 1.7 nM. Further, in the experiment with Her3/His10 receptor, the IC50 came to 0.07 nM. In addition, in experiment [2], the Kd worked out at 3.6 nM. Moreover, the “% Receptor Internalization” value in [3] came to 55%.

B10: HER3-hMab-A9 (antibody, V domains shown)
VH: QVQLVESGGGLVQPGGSLRLSCSASGFSFSASYYIYWVRQAPGKGLEYIAYITGDDDKRTYYANWAKGRFTISRDNSKNTVYLQMNSLRAEDTAVYYCTRNLPDELWGPGTLVTVSS
VL: DIQMTQTPSTLSASVGDRVTITCQSSESVYSYKNLAWYQQKPGKPPKLLIWQASRLSSGVPSRFSGSGSGTEFTLTISSLQPDDFATYYCQGTYYSSAWDFVFGGGTKVEIK
On to B10, for which the EC50 in the experiment with Mouse HER3 ECD stood at 4.3 ng/mL; in experiment [4], 3.1 ng/mL.

B11: HER3-hMab-A12 (antibody, V domains shown)
VH: B10 VH with N76T
VL: B10 VL with D1Q, I2A
As to B11, the EC50 with Mouse HER3 ECD was 6.7 ng/mL; in [4], 2.4 ng/mL.

B12: HER3-hMab-A10 (antibody, V domains shown)
VH: B10 VH with N76T
VL: B10 VL
With B12, the EC50 in the experiment with Mouse HER3 ECD turned out to be 5.4 ng/mL. This molecule yielded an EC50 in experiment [4] of 2.6 ng/mL. The “pHER3 inhibition (IC50, µg/ml)” value in [5] worked out at 0.0173 µg/ml. In addition, the “Inhibition of MCF-7 cancer cell proliferation (IC50, µg/ml)” value in experiment [6] came out at 0.181 µg/mL. Moreover, in experiment [7], binding was put at a Kd of 1.2 nM, the koff turned out to be 0.000169 s⁻¹ and the kon was 141000 M⁻¹ s⁻¹.

B13: HER3-hMab-A11 (antibody, V domains shown)
VH: B10 VH
VL: B10 VL with D1Q, I2A
For the molecule B13, the values for the EC50 (with Mouse HER3 ECD; in experiment [4]) were 7.9 ng/mL and 2.6 ng/mL, respectively.

For the origin of these results see patent US20180066066A1 (University of Texas, published 2018).
